From the DeepSol protein solubility set

Test: soluble on expression in E. coli; label from the status in PepcDB or PDB records

Sequence | soluble on expression in E. coli
MSLSITFFVTGDNHLGYYEKNLTLKDDCYKLFEQYLKEATQKEGSILLQCGDLFNDLRPNKSCVSKTANLIKKYCIGDADIPYTIKDEAELSYPLNITDPYINVKHPLFTIHGTNDEPSGYKLIAGSEILASCGLVNYISPKSFEEEKMLKPVIIVNEHTKIALYGLSVLYSSDLDEIVEDETFHIKKPNGNDWICILLLYIGKGTISQTTKDIIEKHFNIIILGGQHSCNIPTGDFNGSVIIQPGSPFFLSFDEYDEIKKGFVKIVVEGQKIYIEKKEYKPIHRMIKKEVYIPETLRDCVISKRIEDFIQQEMKKCITEAVIKENEQILLKLIVKDCNQDCYPDTKKISSLLEEDVVNFIDCIKVKKEGHHHHHH | not soluble
MSLSKASLQEMAVKYIAEQIGEHDSEQIHLSALPLDSRIPDRACSTTPDIISSSEPPFNRQITIQVKCDDPQSWAQYVHIKVLKMAPVVVTTDNIARGEVITSAHITVEMKPTHFVRVQYQDDPKALIGSRSKRNIREGMPILLNQICMVCKGDAINIYASTKGLQIKTTGVALEDGTLGEQILVENKKTGKVLNARVDGVESVQVNIEGHHHHHH | not soluble
MSLSKDEELLQNYCSILFTYKTIGISNLHLYYFRETEIKSLKQLINAEFAILQTCNRVEIYLYSDTNTLKEVNKIIQYLNNIHNEPIGNQARVLCGKDAAKHLFLVASGADSLSIGEYEILSQIRSTIDMFKKLGFSGKYLQIFFERAIKVGRKVREETSISKGKVGIYSLAIDEAKKRFNDFYDRRILVIGAGEMAQKITSMLHNEGAKDVTIMNRTIEKAKQLALKFGYNYEKLDLDKLGNFDVAFISIYHENLRLENKWNTLIVDITVPPLFTGNNVITLEELERISNLNFKAREEELAKINKLVEDGINELLYDYKKEIYTEFMSKIMKREGHHHHHH | soluble
MSLSKFAERLQTVANKPEVFQKFSRGLERESLRYTPEGALTQTPHPKALGAALTHRWITTDFAESLLEFITPVSHEVDTLLAQMSDIHHFAQTKLGDEKLWPLSMPCYVGSEEGIVLAQYGSSNTGKMKTLYREGLKRRYGSLMQIISGVHFNFSFPESFWDALFGEQEESARQASKSAAYFGVIRNYYRFGWLIPYLFGASPALCSSFLQGRKTDLPFESIGKTLYLPYATSLRLSDLGYTNSAQSVLQIGFNSIEQYLQGLNEAIRTPSAEFAKLGVKVEGEYRQLNSNVLQIENELYAPIRPKRVTQSGERPSQALARAGVEYIEVRSLDVNPFSPIGINEDQVRFLDLFLAWTALSDSDPMDGCELACWRDNWRKVVLEGRKPGLELQIGCHGEVLTLQAWAKRVFADLRVIAETMDAALGGDAYQAVCAKLETWIENPELTLSAQILAEIKQHGGLGKTGCALGNEYRAVNLQHQYQFYSQDEMEQEVRRSTQAQADIEAKETLNFDAYLTQYFAYLQAVSEGGSHHHHHH | soluble
MSLSKTLLEIRLNSLIDLRMFYFISLYFRLENKESHKSQEIGNLIRVYNRSKREEAESEPLNLYVEDEKGNLLAGLIAETFGNWLEIEYLFVKEELRGQGIGSKLLQQAESEAKNRNCCFAFVNTYQFQAPDFYQKHGYKEVFSLQDYLYIRQRYYYQKNLEGHHHHHH | not soluble
MSLSLPSSHFVLIAEEENNSYWRLVEKGAREAENQFDVLVEYKAPKRSNPEEQLKLIDMAISAKVDGIIVQAVNEEMFTPLINKAVDAGIPVITIDTDAPRSNRVAYIGTDNYYSGTIAGKAMLDDMEGDIHVAVITGSLESSHQKLRVQGFIDMISNEPRVTLVEVEASNISRLEAELKAHQLMEEHPHINAFYGTSALDGIGIVAAAEKLGLDDLYVIAFDTLPENLSLLEQEKIDAIVVQEPFEMGLKSVELLLDIREGQPYSMTNHTHTSIIRKPDLSLLQEHQRLGDEGHHHHHH | soluble
MSLSLSTIICIGMAGSGKTTFMQRLNSHLRAEKTPPYVINLDPAVLRVPYGANIDIRDSIKYKKVMENYQLGPNGAIVTSLNLFSTKIDQVIGLVEQKKDKFQNCIIDTPGQIECFVWSASGAIITESFASSFPTVIAYIVDTPRNSSPTTFMSNMLYACSILYKTKLPMIVVFNKTDVCKADFAKEWMTDFESFQAAIKEDQDLNGDNGLGSGYMSSLVNSMSLMLEEFYSQLDVVGVSSFTGDGFDEFMQCVDKKVDEYDQYYKQEREKALNLKKKKEEMRKQKSLNGLMKDLGLNEKSSAAASDNDSIDAISDLEEDANDGLVDRDEDEGVEREYTFPGEERTKGEVNENSAPDLQRRYQEAMQQVGKTASSETAENIAKYIRNEGHHHHHH | soluble
MSLSNDIELTIDIELQSYLTSLFEGNAGAAIIMNVNDGSILAAGSFPEYDLNPFVTGISFKDWDELSNSLDHPFTNKLINGYYPPGSVVKMGVGLSFLNSKNISPSTHYVCNGSIELGGRFFRCWNRSGHGPVDLKHAIKYSCDVYFYNGSLQVGIDQISETLSRIGFGVKTGVDLPSEFVGTLPSKEWKMQRYRQSWFQGDTLNTAIGQGNFLATPMQIARYTAQIAKSGEVIPHFLKSIENNNTTIENQMDENKKEIFTLFEKSQLPYIRDAMYAVANEQGGTSYRYLHNLDVKVAAKTGTAQVVGFSQTDKNRVDEKQFEYYTRSHAWLTSYAPYSKPKYVVTVLLEHGGRNITSGATVAKIYQKMIELGYFKEGHHHHHH | not soluble
MSLSNQLLLGMSEFGLSYIINFSEFNQHVLVPATTGSGKTTLLQLLVQHAVKFNFPVILIDGKGARDTLESMREIAKFYDKEVHAFTDDGDMRYNPVEHGNDISIRDKLVSLAETESVFYSGAAKALLQVTIQLLDEFKGAKVTLSGDTRTTETVERSLPFVQRFLLPRNVLHLFADAILPNNPKLFEIEVEKKIQKPKKKSVKEGSEILPDSDLDKEEKEEDSQIKNSKFRNISQLGIAQKETETIVLNPETLDLDSYYLLLKRNLRYLPTDKETGENIKQKLFERLFIRYEHKDSPFYLYATSEALQTNINMLLDSELGKLFDTKNAKNVLDVQEIVNQRKLVYVSFNGLIYKEYIRTLAQMLVGDVNYFASEMYRKNVKREVLVIFDEPASYLNETFIDMVNKGRGAGVYGIFTPQTMADIAKLGDKLMEQLVGNVNTLFIGKTNEKGEAEYWSETMGTYQDIDVTSVTEQEDGYSDVGKSDWSGDRGTKRNVDRFKISPNKIKELRTGEFIIYRTAENVNLPPQKVYVRNALEWLQKSNSEGHHHHHH | soluble
MSLSNYISIKGAKVNNLKNIDVNIPRNKLVVITGLSGSGKSSLAFDTGKTICPVCHGTRLKKEAGYVKVGGKSISQLVDLPIHDLKEFFRTLELDAHDTAIAKRILTEITNRINFLMDVGLGYLTLNRLSNSLSGGESQRINLATSLGSSLVGSLYILDEPSIGLHSRDTDRLIKVLRQLQELGNTVVVVEHDEEIIRAADYIIDIGPQAGRLGGQIVYQGNMNDLQRNSNSYTVRYLLGEEGHHHHHH | soluble
MSLSQASTVCALNDHLPNTVLRLPLKYPSTNKELKSHEYFESQIAYTGCLIATTTHMVDHISWRLNNDLKTITLTPICISNPFQLECRTISLLLPSQVYPHCIDAVYHGEEGGYLVVDVIDENYLWITLRIEMNDFLHNTKNFRPLTLDQFESWGHISVPYSFELRSNPYCLRVLDERNVVVSLKDGGLLHFQRSSVLADFNVFNCEESAHFHLGGILDGIFKSGRADLTVDGVSSNAAIDATIVPDPSKSLIATLTVSKTIKFWDLKEHSLLRERTIHPQDTNTWLSFGPARYLQCYGNVLGVHSLLQTKHSTSIDFWDVSPLKEDQKSYKILHTVELLSPTINGAPSDSPFSNDIWFIQDFTLKFEKGNFTVLWKSNNSSILTIYDLKNLAENDKPPKLSQWTLSGSEGHHHHHH | soluble
MSLSRIIVVTSGKGGVGKTTSSAAIASGLALRGKKTAVIDFDIGLRNLDLIMGCERRVVYDFVNVINGEATLNQALIKDKRNENLFILPASQTRDKDALTKDGVQRVLNDLKEMGFDFIICDSPAGIEQGALMALYYADEAIVTTNPEVSSVRDSDRILGILDSKSMRAEQGQAPIKQHLLLTRYNPARVTQGEMLSVQDVEEILHVPLLGVIPESQAVLNASNKGVPVIFDDQSDAGQAYQDTVARLLGEQVEFRFLTEAKKGIFKRLFGGEGHHHHHH | soluble
MSLSRRGRPKIPRFISEEPKFRIFKPHGVSLTEVDKVILSVDELEAIRLVDYLDYTQEEASKLMGISRRVLWSLLTEGRKKIADALINGKAIVIEGGEYKIRECGFCMRHRFGIKKHCRTWREELEGHHHHHH | not soluble
MSLSRSEEMHRLTENVYKTIMEQFNPSLRNFIAMGKNYEKALAGVTYAAKGYFDALVKMGELASESQGSKELGDVLFQMAEVHRQIQNQLEEMLKSFHNELLTQLEQKVELDSRYLSAALKKYQTEQRSKGDALDKCQAELKKLRKKSQGSKNPQKYSDKELQYIDAISNKQGELENYVSDGYKTALTEERRRFCFLVEKQCAVAKNSAAYHSKGKELLAQKLPLWQQACADPSKIPERAVQLMQQVASN | soluble
MSLSRYPQLIQEQILKCKESWDSNSYKTSLRSFVYNKVNETDAILYTKPTNVSQEEWDKAIENKPSSDLIPIQVFGFEGLNNRNQIQVENVAQARVILNQILDKTKQLQQSHSFETSARIMKVQARNAQIEKRILKLGTQLAILKNRRLPLTISEEKMWGQFQELLKSSNDPAGLGKTNELWARLAVLRERAKTISEQLDSKLVIIGENGGQTGKPSASGDNNRVSDEVYDRIDKIAEILKNQQSGIAYLNDVLEKDNKALDSVVELKEGHHHHHH | soluble
MSLSTERTERVRPQRVEQNLPPLSWGGSGVQTAYWVQEAVQPGDSLADVLARSGMARDEIARITEKYGGEADLRHLRADQSVHVLVGGDGGAREVQFFTDEDGERNLVALEKKGGIWRRSASEADMKVLPTLRSVVVKTSARGSLARAEVPVEIRESLSGIFAGRFSLDGLKEGDAVRLMYDSLYFHGQQVAAGDILAAEVVKGGTRHQAFYYRSDKEGGGGGNYYDEDGKVLQEKGGFNIEPLVYTRISSPFGYRMHPILHTWRLHTGIDYAAPQGTPVRASADGVITFKGRKGGYGNAVMIRHANGVETLYAHLSAFSQAEGNVRGGEVIGFVGSTGRSTGPHLHYEARINGQPVNPVSVALPTPELTQADKAAFAAQKQKADALLARLRGIPVTVSQSDEGHHHHHH | soluble
MSLSTFRSIEWKKDKLVLLDQRYLPEKTLYLELKTVDEVARAIKEMTVRGAPAIGVAAAYGMVLCVQKLSKNDDLIRELQKADDLLRASRPTAVNLFWALDRMKKIWQGFNGSLEDLKMILEKEATDIEREDVEINKQIAKNGVELVPFGAKIIHHCNTGSLATVDYGTALGVIRYAHEIGKKIHVFLDETRPRLQGARLSAWEMKELGIPHTIIVDGASGLVMKKFKIDLALVGADRIAANGDTANKIGTYNLAIVAKYHNVPLYVVAPTSTIDLKTPAGQDIPIEERSADEIRCVGNSQVAPQESPVFNPAFDVTPAELISGIITEKGIVYPPFKENLRKLFESAEGHHHHHH | soluble
MSLSTIYDIAKHAGVSKSTVSRVLNNQANISEESRKKVLAAIDQLNYQPSKLARALTSSGFDAIMVISNRSTTTTTGNPFFSEIIQSISTQAELENFDLILQTAKNSEDELKKCLSKIQEKMIKGIIMLSSPADEDFFHQLDPYNIPIVVTGKVEGHYKNIYSVDTDNFGDSYALTKHLIKQGHQKIACIHAPLDYHVSIDRLAGFRSCLFDHQLDLRNDWIIDSGYSIEDSYKAALRLMEGPDKPTAVFATDDLKVLSIYKMAADKNLQIPTDFSVIGYNDKVASSFLSPPLTSIDIPINKLGKKATNLLFRLIHQDKNVPKTTIIQTEMIERESIQKINEGHHHHHH | not soluble
MSLSYPYYIVDAFAEEVFKGNPAAVYVLEKWLPEAVMQNIAIENNLSETAFTVKEGQSYALRWFTPEREIDLCGHATLATAFVLFNYYSVAEETLHFTSQSGPLAVTKKEEYYYLDFPYILPERIPILPEYEAALGTKIYEAYLGRDLFFVLKDEETVAKITPDFSALKALDLGVGVIVTASGDSVDFVSRTFFPKLRINEDPVCGSAHANLIPYWGKRLNQTTLSAYQVSPRGGFLTCEVKENRVIIGGTAKLFAKGEAYLPVEGGSHHHHHH | soluble
